# B1: Small G protein signaling modulator 1 (Mus musculus), Q8BPQ7-1 (parent)
# chain: MASVPAEAETRQRLLRTVKKEVKQIMEEAVTRKFVHEDSSHIISFCAAVEACVLHGLRRRAAGFLRSNKIAALFMKVGKGFPPAEELSRKVQELEQLIESARNQIQGLQENVRKLPKLPNLSPLAIKHLWIRTALFGRVLDKIVHYLVENSSKYYEKEALLMDPVDGPILASLLVGPCALEYTKMKTADHFWTDPSADELVQRHRIHSSHLRQDSPTKRPALCIQKRHSSGSMDDRPSISARDYVESLHQDSRATLLYGKNNVLVQPRDDMEAVPGYLSLHQTADVMTLKWTPNQLMNGSVGDLDYEKSVYWDYAVTIRLEEIVYLHCHQQVDSGGTVVLVSQDGIQRPPFRFPKGGHLLQFLSCLENGLLPHGQLDPPLWSQRGKGKVFPKLRKRSPQGSSESTSSDKEDDEATDYVFRIIYPGTQSEFVPQDLMDVSMNNLPPLWQPSPRKSSCSSCSQSGSADGGSTNGCNHERAPLKLLCDNMKYQILSRAFYGWLAYCRHLSTVRTHLSALVNHMIVSPDLPCDAGQGLTASIWEKYIQDSTTYPEQELLRLIYYGGVQPEIRRAVWPFLLGHYQFGMTEMERKEVDEQIHACYAQTMSEWLGCEAIVRQRERESHAAALAKCSSGASLDSHLHRMLHRDSTISNESSQSCSSGRQNLRLQSDSSSSTQVFESVDEVEQTEAEGRSEEKHPKIPNGNPANGTCSPDSGHPSSHNFSSGLSEHSEPSLSTEDSVLDAQRSLPAVFRPGDSSVEDGQSSEATTSRDEAPREELAVQDSLESDLLANESLEEFMSIPGSLDVALPEKDGAVMDGWPGEADKPSRADSEDNLSEEPEMESLFPALASLAVTSSANNEASPVSSSGVTYSPELLDLYTVNLHRIEKDVQRCDRSYWYFTAANLEKLRNIMCSYIWQHIEIGYVQGMCDLLAPLLVILDDEALAFSCFTELMKRMNQNFPHGGAMDTHFANMRSLIQILDSELFELMHQNGDYTHFYFCYRWFLLDFKRELVYDDVFSVWETIWAAKHVSSAHYVLFIALALVEVYRDIILENNMDFTDIIKFFNEMAERHNAKQILQLARDLVHKVQILIENK
# partner: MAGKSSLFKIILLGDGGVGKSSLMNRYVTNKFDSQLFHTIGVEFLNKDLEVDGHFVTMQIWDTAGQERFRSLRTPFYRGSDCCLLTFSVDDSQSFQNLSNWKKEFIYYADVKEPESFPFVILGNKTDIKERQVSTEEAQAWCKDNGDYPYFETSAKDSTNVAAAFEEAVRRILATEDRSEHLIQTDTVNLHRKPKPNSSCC
# B2: Ras-related protein Rab-9A (Mus musculus), Q9R0M6 (parent)
# chain: B1 partner
# partner: B1 chain
# Variants of: B1
# Conditions: with rab9a_mouse Rab9a
row,Variant,effect of a mutation on the interaction
1,M297A,disrupting interaction strength
2,Y277A,disrupting interaction strength
3,N261A,disrupting interaction strength
4,L256A,disrupting interaction strength
5,K260A,disrupting interaction strength
6,N294A,disrupting interaction strength

# Variants of: B1
# Conditions: with rab9a_mouse Rab9a
# Remark: another data set of the same source
row,Variant,effect of a mutation on the interaction
1,M297A,decreasing interaction strength
2,L256A,decreasing interaction strength
3,K260A,decreasing interaction strength

# Variants of: B2
# Conditions: with Sgsm1, Q8BPQ7-1
row,Variant,effect of a mutation on the interaction
1,L72A,decreasing interaction strength
2,F69A,decreasing interaction strength
3,G41A,decreasing interaction strength
4,G41D,decreasing interaction strength

# Variants of: B2
# Conditions: with Sgsm1, Q8BPQ7-1
# Remark: another data set of the same source
row,Variant,effect of a mutation on the interaction
1,F44A,decreasing interaction strength
2,F76A,decreasing interaction strength
3,W61A,decreasing interaction strength
4,G41A,disrupting interaction strength
5,G41D,disrupting interaction strength
6,V42A,decreasing interaction strength
7,I40A,decreasing interaction strength
8,E43A,decreasing interaction strength

# — IntAct's records for PubMed 25220469
